Critical concentration of polymerization, concentration of free laminin over the EHS matrix in buffer and percent of total laminin of the EHS matrix extracted by 10 mM EDTA data for two substances are collected here from article PMC2289474.

The target in test [1] is laminin (Engelbreth-Holm-Swarm tumor laminin, free of entactin) (mouse (endogenous in EHS tumor)) (UniProt P19137). Kind of test: sedimentation assay of polymerization.
Test [2] has as its target laminin/entactin complex (laminin-nidogen complex) of the EHS tumor (mouse (endogenous in EHS tumor)) (UniProt P19137). Briefly: extraction of laminin from tissue matrix.
The target is the same in test [3]. Kind of test: sedimentation assay of polymerization.

With “laminin (Engelbreth-Holm-Swarm tumor laminin, free of entactin), P19137 25-3083; P02469 22-1786; P02468 34-1607”, the critical concentration of polymerization in test [1] was 0.1 mg/mL.

In test [2], “laminin/entactin complex (laminin-nidogen complex) of the EHS tumor, P19137 25-3083; P02469 22-1786; P02468 34-1607; P10493 29-1245” yielded a concentration of free laminin over the EHS matrix in buffer at 37 C of 0.08 mg/mL and a percent of total laminin of the EHS matrix extracted by 10 mM EDTA of 79%. In test [3], this substance showed a critical concentration of polymerization of 0.1 mg/mL.
